Source: the RNAGym collection of RNA variant scans (doi:10.7554/elife.80360)

B1: Hairpin Ribozyme (parent)
chain: GUCCUCUUUCACGUGCGCGUGAAAGAGAGAAGUGAACCAGAGAAACACACGUUGUGGUAUAUUACCUGGUA

Variants of: B1
Test: self-cleavage, relative activity (ratio to wild type); higher = more cleavage; co-transcriptional
For A11C G69C, the self-cleavage was 0.182. With A11U A71U the self-cleavage was 0.701. A11U G19A gave a self-cleavage of 0.79. Variant A11U G19C has a self-cleavage of 0.687. With A11U G21A the self-cleavage was 0.586. A11U G21U gave a self-cleavage of 0.915. Work on A11U C37A yielded a self-cleavage of 0.228. In the case of A11C C50A, the self-cleavage is reported as 0.288. Variant A11U U52G has a self-cleavage of 0.362. For A11G U14C, the self-cleavage was 0.952. With A11C G32C the self-cleavage was 0.0648. C12G G17C showed a self-cleavage of 0.842. Work on C12A C65U yielded a self-cleavage of 0.309. C10U G19U gave a self-cleavage of 0.672. C12G G25A gave a self-cleavage of 0.524. Variant A11G G19U has a self-cleavage of 0.979. In the case of C10U C65G, the self-cleavage is reported as 0.284. Variant A11U U20C has a self-cleavage of 1.11. For A11U U20G, the self-cleavage was 0.907. In the case of A11U U20A, the self-cleavage is reported as 0.874. For A11G A61U, the self-cleavage was 0.136. A11G A61G showed a self-cleavage of 0.166. C10U C46A gave a self-cleavage of 0.15. In the case of C10U C46G, the self-cleavage is reported as 0.0871. In the case of A11U C38G, the self-cleavage is reported as 0.128. In the case of A11C U58A, the self-cleavage is reported as 0.635. For A11C U58C, the self-cleavage was 1.16. Variant C12A U70A has a self-cleavage of 0.673. A11C U62A gave a self-cleavage of 0.208. Work on A11C U62C yielded a self-cleavage of 0.278. With A11U A64G the self-cleavage was 0.588. Variant A11U A64U has a self-cleavage of 0.152. In the case of A11U A64C, the self-cleavage is reported as 0.175. Variant C12A G69U has a self-cleavage of 0.251. C12A G69C gave a self-cleavage of 0.275. For C12A U63A, the self-cleavage was 0.102. With C12A U63G the self-cleavage was 0.213. In the case of A11C C37A, the self-cleavage is reported as 0.37. Work on A11C C37G yielded a self-cleavage of 0.435. A11C C37U showed a self-cleavage of 0.494. For A11G G69C, the self-cleavage was 0.267. A11C A45G gave a self-cleavage of 0.162. For A11U G34A, the self-cleavage was 1.13. With A11U G34C the self-cleavage was 1.43. With A11U C66A the self-cleavage was 0.139. With C12A A49U the self-cleavage was 0.256. C12A A49G showed a self-cleavage of 0.474. With C12G A26G the self-cleavage was 0.75. Variant A11G U55G has a self-cleavage of 0.223. A11U A24C showed a self-cleavage of 0.211. With A11U A35G the self-cleavage was 0.867. Variant A11U A35C has a self-cleavage of 0.86. With C12A G27U the self-cleavage was 0.249. Work on C12A G27A yielded a self-cleavage of 0.378. In the case of A11G A71G, the self-cleavage is reported as 0.814. Variant A11G U63A has a self-cleavage of 0.116. For C10U C66A, the self-cleavage was 0.183. Variant C12G G29A has a self-cleavage of 0.138. Work on C12G A61C yielded a self-cleavage of 0.24. C10U U62G gave a self-cleavage of 0.0799. Work on A11G A41U yielded a self-cleavage of 1.14. In the case of A11U A22G, the self-cleavage is reported as 0.755. Variant C12A C16A has a self-cleavage of 0.964. With C12A A24C the self-cleavage was 0.914. C12A A24G gave a self-cleavage of 0.676. For C12G A59C, the self-cleavage was 0.076. With A11U A41G the self-cleavage was 0.495. For A11U G56A, the self-cleavage was 0.176. For A11U G56U, the self-cleavage was 0.131. C10U G40U showed a self-cleavage of 0.203. With C10U G40C the self-cleavage was 0.138. For C12A U20G, the self-cleavage was 0.732. C10U U53C gave a self-cleavage of 0.708. C12A A28C gave a self-cleavage of 0.531. With C12A A28G the self-cleavage was 0.836. C12G G27C showed a self-cleavage of 0.226. Variant C10U U52A has a self-cleavage of 0.761. In the case of C12A G13U, the self-cleavage is reported as 0.673. Variant C12A A44U has a self-cleavage of 0.186. With C12A A47U the self-cleavage was 0.132. Variant C12A A47G has a self-cleavage of 0.0872. In the case of A11C A44U, the self-cleavage is reported as 0.155. With A11C G54U the self-cleavage was 0.583. Variant A11C G54C has a self-cleavage of 0.378. For C12A G56U, the self-cleavage was 0.159. C12A G56C showed a self-cleavage of 0.0797. For A11U C48G, the self-cleavage was 0.0875. A11C A36C gave a self-cleavage of 0.471. Variant A11C G27A has a self-cleavage of 0.403. For A11C G27C, the self-cleavage was 0.165. Variant C10U U70C has a self-cleavage of 0.637. C10U U70A showed a self-cleavage of 0.704. A11C A22U gave a self-cleavage of 0.554. Variant A11C A28G has a self-cleavage of 0.951. For A11G A44U, the self-cleavage was 0.137. C12A A59U gave a self-cleavage of 0.176. For C12A A59C, the self-cleavage was 0.149. C10U U67C gave a self-cleavage of 0.206. A11U C46U showed a self-cleavage of 0.0973. For C12A C48U, the self-cleavage was 0.112. C12G C37U gave a self-cleavage of 0.445. With C12A A64G the self-cleavage was 0.411. Work on C12A A64C yielded a self-cleavage of 0.101. C12G G21A showed a self-cleavage of 0.683. Variant A11U A28G has a self-cleavage of 0.929. C10U A64U gave a self-cleavage of 0.134. Work on C10U A64G yielded a self-cleavage of 0.606. Work on C10U G51C yielded a self-cleavage of 0.783. A11G A24U gave a self-cleavage of 0.968. With A11G A24G the self-cleavage was 0.792. With A11U A43U the self-cleavage was 0.078. In the case of C12A G21U, the self-cleavage is reported as 0.752. With C12A G21C the self-cleavage was 0.808. For A11U C16G, the self-cleavage was 0.653. For A11U C16A, the self-cleavage was 0.696. Work on A11G U33G yielded a self-cleavage of 0.131. C12A G29C gave a self-cleavage of 0.0897. Work on C12A G29A yielded a self-cleavage of 0.162. With C12A G29U the self-cleavage was 0.201. For C12A C66G, the self-cleavage was 0.208. Work on C12A C66A yielded a self-cleavage of 0.259. Variant A11U A44G has a self-cleavage of 0.144. A11U A44U showed a self-cleavage of 0.22. A11G C48U showed a self-cleavage of 0.144. For A11G C66U, the self-cleavage was 0.619. A11C A31C showed a self-cleavage of 0.116. A11C G42A showed a self-cleavage of 0.278. A11G G32C showed a self-cleavage of 0.0578. With A11C G57A the self-cleavage was 0.116. Variant A11C U52G has a self-cleavage of 0.857. A11G G29A showed a self-cleavage of 0.101. For A11G U52C, the self-cleavage was 0.944. A11C U20C gave a self-cleavage of 1.02. C10U C48U showed a self-cleavage of 0.209. A11G A26U gave a self-cleavage of 0.645. Variant A11G A26G has a self-cleavage of 0.751. For A11C C46A, the self-cleavage was 0.142. For C12A A26C, the self-cleavage was 0.393. For C12G C50G, the self-cleavage was 0.176. For C12A A22C, the self-cleavage was 0.575. With A11C U63C the self-cleavage was 0.141. A11C U63G showed a self-cleavage of 0.134. Variant A11C C66U has a self-cleavage of 0.408. In the case of A11C C66A, the self-cleavage is reported as 0.317. In the case of A11U C18G, the self-cleavage is reported as 0.812. In the case of A11U C18U, the self-cleavage is reported as 1.12. A11G A22C showed a self-cleavage of 0.779. In the case of A11G A22U, the self-cleavage is reported as 1.01. For A11G A22G, the self-cleavage was 0.774. A11U A30U showed a self-cleavage of 0.133. Variant A11G G42A has a self-cleavage of 0.201. A11G G42C gave a self-cleavage of 0.322. Variant A11G G42U has a self-cleavage of 0.314. With A11C A59G the self-cleavage was 0.161. Work on A11C A59C yielded a self-cleavage of 0.0956. Work on A11C A59U yielded a self-cleavage of 0.112. Work on C10U U14A yielded a self-cleavage of 0.811. C12A G19C gave a self-cleavage of 0.944. For C12G A28U, the self-cleavage was 0.57. Work on C12G A28C yielded a self-cleavage of 0.561. In the case of C12A G15C, the self-cleavage is reported as 0.837. Variant C12A G15U has a self-cleavage of 0.805. Work on C12A G15A yielded a self-cleavage of 0.801. Work on C12A U62G yielded a self-cleavage of 0.143. C10U G25U showed a self-cleavage of 0.509. For A11U G13A, the self-cleavage was 0.672. With A11C U70G the self-cleavage was 0.608.
